According to patent US20230211003A1, “CONJUGATE COMPOUNDS FOR PREVENTING AND/OR TREATING HBV AND/OR HDV INFECTIONS, LIVER DISEASES ANDFOR TARGETING NTCP” (priority 2019, published 2023):
Like-named read-outs stand apart in the source and are kept apart here. Square brackets hold non-standard residues; d marks the D form. Ends that are not written are not given here. Peptide text beside a SMILES is read from it. * marks the point of attachment. Ursodeoxycholyl = C[C@H](CCC(=O)*)[C@H]1CC[C@H]2[C@@H]3[C@@H](O)C[C@@H]4C[C@H](O)CC[C@]4(C)[C@H]3CC[C@]12C; Myristoyl = CCCCCCCCCCCCCC(=O)*

Key:
HDV = test: microbe, parasite or virus in culture; type: cell-based, hepatitis D virus (HDV)
From the text: FIG. 3 HBV/HDV infection assay.
Tested were conjugate compounds comprising a truncated variant of Myrcludex B (amino acids 2-21) conjugated with bile acids cholic acid (CA) and ursodeoxy cholic acid (UDCA). They were compared with a control peptide not containing a bile acid moiety, namely HBVpreS/(-11)-21^myr (Genotype B) and the two bile acids CA and UDCA alone.
FIG. 4 HBV/HDV infection assay.
Tested were conjugate compounds comprising a truncated variant of Myrcludex B (amino acids 2-21) conjugated with cholic acid (CA) and a cyclic peptide (also comprising amino acids 2-21) conjugated with ursodeoxy cholic acid (UDCA). They were compared with a control peptide not containing a bile acid moiety, namely HBVpreS/2-21^myr (Genotype B).
FIG. 5 HBV/HDV infection assay of compounds conjugated with bile acid monomers and dimers.
Tested were three compounds: two conjugated with ursodeoxy cholic acid (UDCA) and one with a dimer of ursodeoxy cholic acid (UDCA)2, wherein two comprise amino acids 2-21 of Myrcludex B in a linear form and one as cyclic peptide.
FIG. 7 Infection inhibition of bile acid conjugates with linear peptide sequences Reduction of HDV infection by various bile acid conjugates, control peptides, ursodeoxycholic acid and cholic acid in Huh7-hNTCP cells. The cells were pretreated with the substances for 30 minutes and then co-incubated with the substances and HDV overnight. An in-cell ELISA was carried out five days after infection (n=3).
Reduction of HDV infection by various bile acid conjugates and control peptides in Huh7-hNTCP cells. The cells were pretreated with the substances for 30 minutes and then co-incubated with the substances and HDV overnight. An in-cell ELISA was carried out five days after infection (n=3).
Reduction of HDV infection by a bile acid dimer peptide conjugate bile acid conjugates as compared to the monomeric bile acid conjugates and the control peptides in Huh7-hNTCP cells. The cells were pretreated with the substances for 30 minutes and then coincubated with the substances and HDV overnight. An in-cell ELISA was carried out five days after infection (n=3).
Example 3 HDAg In-Cell ELISA (Huh7-hNTCP
1st Antibody Mouse or rabbit anti HDAg (FD3A7) 1:3000
2nd Antibody: Goat-anti-mouse or goat-anti-rabbit peroxidase conjugated 1:5000
Grow and infect cells in white 96-well plates.
1) Fix cells with 50 μl 4% PFA at RT for 30 min
5) Incubate with 100 μl primary antibody (1:3000) diluted in blocking buffer at RT with shaking for 1 h
9) Incubate with 100 μl 2nd Antibody 1:5000 in blocking buffer at RT with shaking for 1 h.
11) Add 50 μl luminescence substrate (mix according to manufacturer's protocol) and measure at plate reader directly after pipetting.
(Enhanced luciferase protocol, 0.1 s measurement)

[1] = target: human sodium taurocholate co-transporting polypeptide (NTCP/SLC10A1) (human) (UniProt Q14973); test: cell-based or functional assay
[2] = target: T1, human sodium taurocholate co-transporting polypeptide (NTCP/SLC10A1) (human, UniProt Q14973 1-349); test: cell-based or functional assay
T1 sequence: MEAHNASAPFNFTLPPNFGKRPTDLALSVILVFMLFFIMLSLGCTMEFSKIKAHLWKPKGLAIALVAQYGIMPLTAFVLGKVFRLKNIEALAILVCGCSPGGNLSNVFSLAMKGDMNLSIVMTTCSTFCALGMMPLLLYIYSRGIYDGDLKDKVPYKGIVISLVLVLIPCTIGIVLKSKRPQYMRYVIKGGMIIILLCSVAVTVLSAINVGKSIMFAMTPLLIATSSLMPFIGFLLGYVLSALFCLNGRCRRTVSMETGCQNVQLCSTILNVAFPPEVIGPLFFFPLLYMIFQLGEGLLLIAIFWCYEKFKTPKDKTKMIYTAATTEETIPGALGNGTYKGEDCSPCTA

[3] = experiments of FIGS. 7 and 9, Huh7-hNTCP cells pretreated 30 minutes, co-incubated with HDV overnight, in-cell ELISA five days after infection (n=3), read-out: IC 50
[4] = HDV infection, Huh7-hNTCP cells, in-cell ELISA, FIGS. 3, 4 and 5 (genotype B sequence), read-out: IC50

C[C@H](CCC(=O)O)[C@H]1CC[C@H]2[C@@H]3[C@H](O)C[C@@H]4C[C@H](O)CC[C@]4(C)[C@H]3C[C@H](O)[C@]12C [CA, cholic acid]
IC50 (HDV; Hepatitis delta virus): 115 µM

CCCCCCCCCCCCCC(=O)NCC(=O)N[C@H](C(=O)N[C@@H](CC(N)=O)C(=O)N[C@@H](CC(C)C)C(=O)N[C@@H](CO)C(=O)N[C@H](C(=O)N1CCC[C@H]1C(=O)N[C@@H](CC(N)=O)C(=O)N1CCC[C@H]1C(=O)N[C@@H](CC(C)C)C(=O)NCC(=O)N[C@@H](Cc1ccccc1)C(=O)N[C@@H](Cc1ccccc1)C(=O)N1CCC[C@H]1C(=O)N[C@@H](CC(=O)O)C(=O)N[C@@H](Cc1c[nH]cn1)C(=O)N[C@@H](CCC(N)=O)C(=O)N[C@@H](CC(C)C)C(=O)N[C@@H](CC(=O)O)C(=O)N1CCC[C@H]1C(=O)N[C@H](Cc1ccc(O)cc1)C(=O)N[C@@H](CCCCNC(=O)CC[C@@H](C)[C@H]1CC[C@H]2[C@@H]3[C@@H](O)C[C@@H]4C[C@H](O)CC[C@]4(C)[C@H]3CC[C@]12C)C(N)=O)C(C)C)[C@@H](C)O [HBVpreS/2-21myr-UDCA] (Myristoyl-GTNLSVPNPLGFFPDHQLDP[dY]K(Ursodeoxycholyl)-NH2)
IC50 (HDV; [3]): 0.0092 µM

CCCCCCCCCCCCCC(=O)NCC(=O)N[C@H](C(=O)N[C@@H](CC(N)=O)C(=O)N[C@@H](CC(C)C)C(=O)N[C@@H](CO)C(=O)N[C@H](C(=O)N1CCC[C@H]1C(=O)N[C@@H](CC(N)=O)C(=O)N1CCC[C@H]1C(=O)N[C@@H](CC(C)C)C(=O)NCC(=O)N[C@@H](Cc1ccccc1)C(=O)N[C@@H](Cc1ccccc1)C(=O)N1CCC[C@H]1C(=O)N[C@@H](CC(=O)O)C(=O)N[C@@H](Cc1c[nH]cn1)C(=O)N[C@@H](CCC(N)=O)C(=O)N[C@@H](CC(C)C)C(=O)N[C@@H](CC(=O)O)C(=O)N1CCC[C@H]1C(N)=O)C(C)C)[C@@H](C)O [HBVpreS/2-21myr] (Myristoyl-GTNLSVPNPLGFFPDHQLDP-NH2; C-terminus assumed)
IC50 (HDV; [4]): 0.0628 µM

C[C@H](CCC(=O)O)[C@H]1CC[C@H]2[C@@H]3[C@@H](O)C[C@@H]4C[C@H](O)CC[C@]4(C)[C@H]3CC[C@]12C [UDCA, ursodeoxycholic acid]
IC50 (HDV; [4]): 79 µM | IC50 (HDV; [3]): 79 µM

HBVpreS/2-21myr (consensus) (peptide)
IC 50, inhibition of HDV infection of Huh7-hNTCP cells (in-cell ELISA, FIGS. 7 and 9) [1]: 0.0703 µM

HBVpreS/2-21myr-(UDCA)2 (genotype B) (peptide)
IC50, inhibition of HDV infection of Huh7-hNTCP cells (HDAg in-cell ELISA) [1]: 0.00355 µM | IC 50, inhibition of HDV infection of Huh7-hNTCP cells (in-cell ELISA, FIGS. 7 and 9) [1]: 0.0127 µM

HBVpreS/2-21myr-CA (genotype B) (peptide)
IC50, inhibition of HDV infection of Huh7-hNTCP cells (HDAg in-cell ELISA) [1]: 0.00727 µM | IC 50, inhibition of HDV infection of Huh7-hNTCP cells (in-cell ELISA, FIGS. 7 and 9) [1]: 0.0125 µM

HBVpreS/2-21myr-LCA (genotype B) (peptide)
IC 50, inhibition of HDV infection of Huh7-hNTCP cells (in-cell ELISA, FIGS. 7 and 9) [1]: 0.0075 µM

HBVpreS/2-21myr-UDCA (genotype B) (peptide)
IC50, inhibition of HDV infection of Huh7-hNTCP cells (HDAg in-cell ELISA) [1]: 0.00845 µM | IC 50, inhibition of HDV infection of Huh7-hNTCP cells (in-cell ELISA, FIGS. 7 and 9) [1]: 0.0092 µM

MyrB-UDCA (peptide)
IC 50, inhibition of HDV infection of Huh7-hNTCP cells (in-cell ELISA, FIGS. 7 and 9) [1]: 0.0015 µM

B1: HBVpreS/2-21myr (Genotype B) (peptide)
peptide: Myristoyl-GTNLSVPNPLGFFPDHQLDP
IC50, inhibition of HDV infection of Huh7-hNTCP cells (HDAg in-cell ELISA) [2]: 0.0628 µM
